From the Human Domainome abundance scans (Beltran et al. 2025)
± gives the uncertainty stated by the source.

B1: E3 ubiquitin-protein ligase NEDD4, residues 836 to 881; numbered along this chain, P46934 (parent)
chain: EIEQGFLPKGWEVRHAPNGRPFFIDHNTKTTTWEDPRLKIPAHLRG

Variants of: B1
Test: abundance fitness (aPCA) (normalised: wild type 0, dead -1); higher = more abundant; growth selection in yeast, the domain comes from the species named
Conditions: Homo sapiens

Abundance fitness of substitutions, site by site:
F6: W -0.063 ± 0.058, L 0.051 ± 0.031, A 0.155 ± 0.034, I 0.372 ± 0.058, V 0.038 ± 0.044, Y 0.018 ± 0.035, P 0.001 ± 0.07, M -0.345 ± 0.061, R 0.149 ± 0.037, S 0.16 ± 0.032, T 0.202 ± 0.039, D 0.241 ± 0.049, H 0.05 ± 0.058, Q -0.297 ± 0.093
L7: C -0.882 ± 0.16, A -0.599 ± 0.061, Y -0.915 ± 0.23, P -0.473 ± 0.096, T -0.441 ± 0.1, I -0.493 ± 0.1, F -0.459 ± 0.098, W -0.577 ± 0.11, Q -0.38 ± 0.14, N -1.01 ± 0.37, M -0.186 ± 0.037, E -0.437 ± 0.056, R -1.03 ± 0.13, G -0.524 ± 0.048, K -0.601 ± 0.054, S -0.573 ± 0.055, H -0.543 ± 0.12
W11: S -0.424 ± 0.048, K -0.409 ± 0.063, L -0.648 ± 0.073, M -0.563 ± 0.058, E -0.326 ± 0.044, Q -0.455 ± 0.068, A -0.79 ± 0.096, C -0.418 ± 0.094, F -0.795 ± 0.21, D -0.539 ± 0.16, H -0.761 ± 0.21, N -0.106 ± 0.091, G -0.575 ± 0.037, T -0.792 ± 0.17, P -0.817 ± 0.12, I -0.459 ± 0.1
E12: W -0.692 ± 0.13, G -0.882 ± 0.11, A -0.533 ± 0.066, R -0.793 ± 0.067, K -0.599 ± 0.058, H -0.227 ± 0.11, P -0.967 ± 0.096, T -0.274 ± 0.059, M -0.89 ± 0.14, I -0.633 ± 0.099, N -0.949 ± 0.17, L -0.942 ± 0.094, C -0.758 ± 0.063, Q -0.307 ± 0.077, V -0.526 ± 0.052, S -0.278 ± 0.05, F -0.352 ± 0.11
G10: M -0.854 ± 0.16, Y -0.781 ± 0.041, T -1 ± 0.2, I -1.17 ± 0.28, P -0.829 ± 0.2, F -0.6 ± 0.14, D -0.81 ± 0.11, H -0.493 ± 0.13, V -0.816 ± 0.1, R -0.627 ± 0.055, E -0.605 ± 0.11, K -0.886 ± 0.19, C -0.722 ± 0.059, S -0.831 ± 0.081, W -0.802 ± 0.061, L -0.95 ± 0.12, N -0.12 ± 0.062
Q4: Y -0.016 ± 0.083, A -0.146 ± 0.048, P -0.116 ± 0.042, N -0.092 ± 0.059, M -0.387 ± 0.084, H -0.172 ± 0.059, G -0.09 ± 0.045, L -0.062 ± 0.051, R -0.002 ± 0.042, T -0.242 ± 0.075, D -0.285 ± 0.11, E 0.12 ± 0.077, W -0.298 ± 0.078, S -0.024 ± 0.043, K 0.127 ± 0.067, C 0.012 ± 0.057, I -0.335 ± 0.084, F 0.067 ± 0.074
P8: W -0.856 ± 0.15, H 0.162 ± 0.13, V -0.96 ± 0.16, Q -0.814 ± 0.25, E -0.594 ± 0.18, I -0.623 ± 0.23, G -0.625 ± 0.067, C -0.969 ± 0.3, K 0.223 ± 0.15, T -0.432 ± 0.12, A -0.766 ± 0.26, R -0.648 ± 0.057, F -0.341 ± 0.38, D -0.626 ± 0.088, N -0.611 ± 0.063, M -0.692 ± 0.3, L -0.988 ± 0.23
V13: L -0.122 ± 0.03, C -0.252 ± 0.052, G -0.747 ± 0.07, T -0.529 ± 0.09, W -0.842 ± 0.12, E 0.069 ± 0.062, Y -0.799 ± 0.2, K -0.032 ± 0.045, H -0.724 ± 0.23, P -0.764 ± 0.14, R -0.149 ± 0.034, M 0.05 ± 0.032, S -0.399 ± 0.048, Q -0.135 ± 0.058, A -0.266 ± 0.036, F -0.159 ± 0.084, N -0.836 ± 0.23
I2: L 0.11 ± 0.064, H -0.326 ± 0.16, S -0.166 ± 0.067, A -0.152 ± 0.05, Q 0.178 ± 0.11, K -0.012 ± 0.082, V -0.334 ± 0.064, F -0.129 ± 0.095, R -0.141 ± 0.031, Y -0.326 ± 0.14, T -0.214 ± 0.099, C -0.217 ± 0.094, W -0.271 ± 0.1, M -0.044 ± 0.074, D 0.035 ± 0.089, E -0.037 ± 0.094, P -0.953 ± 0.16
G5: Y 0.008 ± 0.056, Q -0.299 ± 0.089, M -0.175 ± 0.066, S -0.068 ± 0.042, H -0.313 ± 0.095, I -0.219 ± 0.052, W -0.105 ± 0.057, C -0.21 ± 0.043, K 0.015 ± 0.042, R -0.123 ± 0.037, V -0.171 ± 0.053, A -0.064 ± 0.054, F -0.158 ± 0.064, P -0.26 ± 0.055, E -0.141 ± 0.076, N 0.031 ± 0.05, L -0.217 ± 0.044
